Series [1] concerns the molecule itself. As to the kind of experiment: SEC; Superose 12 10/300 GL, pH 8.0 (50 mM Tris), 0.250 M NaCl, 0.8 mL/min; C-LrtA loaded at 30 uM (protomer), 100 uL.
Series [2] deals with the molecule itself. Nature of the series: SEC; Superose 12 10/300 GL, pH 8.0 (50 mM Tris), 0.250 M NaCl, 0.8 mL/min; C-LrtA loaded at 500 uM (protomer), 100 uL.
Series [3] concerns the molecule itself. As to the kind of experiment: cross-linking; glutaraldehyde, pH 7.2 (50 mM Tris), 120 uM C-LrtA (protomer), 200 uL, several reaction times, SDS-PAGE.
Series [4] concerns the molecule itself. As to the kind of experiment: native gel or EMSA; blue-native PAGE, linear 4-16% gradient gel, 20 ug C-LrtA with Coomassie Brilliant blue G, 4 °C; increasing amounts of SDS also tested.

B1: C-terminal region of LrtA (C-LrtA, residues 102-191) with N-terminal His-tag (domain or fragment, Synechocystis sp. PCC 6803)
chain: QHGNVKTSEIVEDKPVEENLIGDRAPELPSEVLRMKYFAMPPMAIEDALEQLQLVDHDFYMFRNKDTDEINVIYIRNHGGYGVIQPHQAS
notes: LrtA of Synechocystis sp; PCC 6803 (191 residues), residues 102-191; whole construct 109 residues with the His-tag, 12,449.89 Da; Cloned in pHTP1 by NZytech; also called isolated C-LrtA; C-terminal half of LrtA protein; source: E. coli BL21 (DE3), purified (Ni-resin IMAC, Hi-Trap Mono Q)
For the protein B1, the “stoichiometry N” value in series [1] is roughly 2; in series [2] it was roughly 8; in series [3] it was 2; in series [4], 5.

Values taken from publication PMC6321479, “The C Terminus of the Ribosomal-Associated Protein LrtA Is an Intrinsically Disordered Oligomer” (International Journal of Molecular Sciences, 2018).
